# Data: patent US6428967 (University of Texas, dated 2002)
# T1: JIP-1 (mouse, UniProt Q9WVI9 1-707)
# T1 construct: Yeast two-hybrid prey clone; also called meg11
# T1 sequence: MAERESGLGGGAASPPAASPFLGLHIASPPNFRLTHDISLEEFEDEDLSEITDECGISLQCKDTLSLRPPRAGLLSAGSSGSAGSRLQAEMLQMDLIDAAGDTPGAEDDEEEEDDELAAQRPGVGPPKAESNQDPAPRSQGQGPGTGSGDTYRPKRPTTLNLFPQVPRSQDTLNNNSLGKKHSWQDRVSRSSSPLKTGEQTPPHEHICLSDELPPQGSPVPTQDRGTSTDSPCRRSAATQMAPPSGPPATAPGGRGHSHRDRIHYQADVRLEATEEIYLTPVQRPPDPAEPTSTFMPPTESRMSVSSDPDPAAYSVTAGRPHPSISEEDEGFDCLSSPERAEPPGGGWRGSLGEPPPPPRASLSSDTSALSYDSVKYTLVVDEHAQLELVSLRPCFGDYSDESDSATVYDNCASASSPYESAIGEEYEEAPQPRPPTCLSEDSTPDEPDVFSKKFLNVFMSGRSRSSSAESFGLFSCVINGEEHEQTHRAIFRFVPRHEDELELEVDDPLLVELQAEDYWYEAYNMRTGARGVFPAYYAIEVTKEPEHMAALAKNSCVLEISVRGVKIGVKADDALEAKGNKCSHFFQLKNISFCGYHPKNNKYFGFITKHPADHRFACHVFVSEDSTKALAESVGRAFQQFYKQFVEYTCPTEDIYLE
# T2: Disabled-1 (Dab1), two-hybrid prey in pB42AD (UniProt P97318-2 1-555)
# T2 sequence (looked up): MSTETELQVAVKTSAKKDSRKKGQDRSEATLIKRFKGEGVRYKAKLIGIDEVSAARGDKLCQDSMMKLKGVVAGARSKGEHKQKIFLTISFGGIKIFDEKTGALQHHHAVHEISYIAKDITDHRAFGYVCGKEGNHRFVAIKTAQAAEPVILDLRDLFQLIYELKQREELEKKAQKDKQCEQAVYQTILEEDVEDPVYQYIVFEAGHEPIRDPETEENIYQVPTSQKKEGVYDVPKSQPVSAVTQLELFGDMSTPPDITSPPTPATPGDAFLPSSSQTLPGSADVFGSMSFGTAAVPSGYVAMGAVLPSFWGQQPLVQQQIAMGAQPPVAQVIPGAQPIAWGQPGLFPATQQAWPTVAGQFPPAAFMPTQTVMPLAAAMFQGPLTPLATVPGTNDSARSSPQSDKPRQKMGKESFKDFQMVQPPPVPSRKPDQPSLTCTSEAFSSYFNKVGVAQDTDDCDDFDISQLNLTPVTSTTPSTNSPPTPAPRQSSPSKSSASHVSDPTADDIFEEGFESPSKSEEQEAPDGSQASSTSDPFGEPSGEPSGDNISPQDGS
# Columns and labels:
# [1] = biological target: T3, PSD-95 (mouse, UniProt Q62108 1-724); experiment: yeast two-hybrid, LexA tail bait against prey
# T3 construct: Yeast two-hybrid prey clone; also called postsynaptic density-95; postsynaptic density protein PSD-95
# Method: (§1) PCR products were subcloned into the EcoRI and NcoI sites of pLexA for the Megalin and VLDL Receptor, and into EcoRI and BarnHI sites for the other receptors. […] All constructs were sequenced after cloning, and all bait vectors were tested for self-activation. Bait and prey vectors were cotransfected into yeast cells (leucine auxotrophic strain EGY48) using the LiAc method as described in the […] manual (CLONTECH). The two-hybrid assay used two reporters (LEU2 and lacZ) under the control of LexA operators. Cells were spread on selective plates (His-;Leu-;Trp-) and grown for 3 days. Single clones were grown on selective plates in patches and harvested after 2–3 days. To recover DNA from yeast, cells were resuspended in 50 μl STES (0.5M NaCl, 0.2M Tris-HCl pH 7.6, 0.01M EDTA, 1% SDS). Glass beads were added and the cells vortexed vigorously. After addition of 20 μl H2O and 60 μl phenol/chloroform cells were vortexed for 1 more minute and centrifuged (14,000×g, 5 min). The aqueous phase was collected and the DNA was precipitated with EtOH. DNA from positive clones was retransformed into DH5α and checked by DNA sequencing. Yeast mating was performed after transformation of LexA plasmids into the yeast strain YM4271 following the instructions in the […] manual (CLONTECH).
# (§2) The ApoER2 tail was tested with (+) and without (−) its alternatively spliced insert. For Megalin and for LRP the complete tails and parts thereof containing a single NPxY motif were tested separately.
# [2] = biological target: T1, JIP-1; experiment: yeast two-hybrid, LexA tail bait against prey
# Method: as §1, §2
# [3] = biological target: T2, Disabled-1 (Dab1), two-hybrid prey in …; experiment: yeast two-hybrid, LexA tail bait against B42AD-Dab1
# Method: as §1, with “All LDL receptor family cytoplasmic tail LexA fusion proteins were constructed using the pLexA vector ([…] system, CLONTECH). […] PCR” for “PCR”
# as §2
# T3 sequence (Q62108 whole entry): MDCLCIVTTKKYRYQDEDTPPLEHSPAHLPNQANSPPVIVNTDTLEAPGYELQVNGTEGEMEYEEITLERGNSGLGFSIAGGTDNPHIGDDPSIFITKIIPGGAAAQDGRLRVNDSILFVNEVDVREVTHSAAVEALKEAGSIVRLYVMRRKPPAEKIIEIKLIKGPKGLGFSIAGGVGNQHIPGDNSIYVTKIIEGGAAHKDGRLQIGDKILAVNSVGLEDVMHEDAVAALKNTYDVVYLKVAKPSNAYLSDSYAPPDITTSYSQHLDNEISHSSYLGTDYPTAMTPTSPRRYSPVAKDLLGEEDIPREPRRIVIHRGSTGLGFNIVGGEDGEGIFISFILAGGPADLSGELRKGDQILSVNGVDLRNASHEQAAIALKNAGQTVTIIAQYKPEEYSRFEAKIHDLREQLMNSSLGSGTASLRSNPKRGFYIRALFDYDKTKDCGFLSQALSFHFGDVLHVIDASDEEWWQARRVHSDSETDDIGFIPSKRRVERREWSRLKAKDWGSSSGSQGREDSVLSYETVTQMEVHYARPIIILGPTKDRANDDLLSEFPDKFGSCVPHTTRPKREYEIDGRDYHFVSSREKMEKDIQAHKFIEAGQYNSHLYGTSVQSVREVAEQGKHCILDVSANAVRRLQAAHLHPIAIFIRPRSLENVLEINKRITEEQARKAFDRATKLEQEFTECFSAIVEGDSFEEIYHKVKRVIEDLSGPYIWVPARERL
binder,measurement,setting,value
"ApoER2 cytoplasmic tail with its alternatively spliced insert, LexA fusion protein (ApoER2+ mouse) (receptor, not shown: large carriers, LexA fusion bait of the two-hybrid assay; also called the ApoER2 tail containing the alternatively spliced insert) not shown",binding result,[1],binds
"ApoER2 cytoplasmic tail without its alternatively spliced insert, LexA fusion protein (ApoER2- mouse) (receptor, not shown: large carriers, LexA fusion bait of the two-hybrid assay; also called the tail without this insert) not shown",binding result,[2],no binding
same,binding result,[1],no binding
"MegB, part of the Megalin cytoplasmic tail, LexA fusion protein (MegB human) (receptor, not shown: small tags and cut ends, WARNING: the listing's entry 129 (76 residues) begins like the LRP entries 130 and 132, while entry 131 (68 residues) is a stretch of the Megalin entry 127; entries 129 and 131 look exchanged, so MegB is probably entry 131) SARDSAVKVVQPIQVTVSENVDNKNYGSPINPSEIVPETNPTSPAADGTQVTKWNLFKRKSKQTTNFE",binding result,[3],no binding
"VQGAKGFQHQRMTNGAMNVEIGNPTYKMYEGGEPDDVG (receptor, not shown: large carriers, LexA fusion bait of the two-hybrid assay) [LRPA, part of the LRP cytoplasmic tail, LexA fusion protein (LRPA human)]",binding result,[3],no binding
"MegC, part of the Megalin cytoplasmic tail, LexA fusion protein (MegC human) (receptor, not shown: large carriers, LexA fusion bait of the two-hybrid assay) GSPINPSEIVPETNPTSPAADGTQVTKWNLFKRKSKQTTNFENPIYAQMENEQKESVAATPPPSPSLPAKPKPPSRRDPTPTYSATEDTFKDTANLVKEDSEV",binding result,[3],no binding
